Test results from patent US9156883B2, “Binding molecules for human factor VIII and factor VIII-like proteins” (DYAX CORP., priority 1999, dated 2015).
Positions of bridges follow the written chain, without caps; N, C: chain ends. No end group written: not given here. *: point of attachment. NHNH2 = NN*

Molecular target: T1, native human factor VIII (nhfVIII) (Homo sapiens, UniProt P00451)
T1 construct: native human factor VIII (nhfVIII); purchased American Diagnostica, Inc. (Greenwich, Conn.) #408 nat
T1 sequence (P00451 20-1332 limits assumed): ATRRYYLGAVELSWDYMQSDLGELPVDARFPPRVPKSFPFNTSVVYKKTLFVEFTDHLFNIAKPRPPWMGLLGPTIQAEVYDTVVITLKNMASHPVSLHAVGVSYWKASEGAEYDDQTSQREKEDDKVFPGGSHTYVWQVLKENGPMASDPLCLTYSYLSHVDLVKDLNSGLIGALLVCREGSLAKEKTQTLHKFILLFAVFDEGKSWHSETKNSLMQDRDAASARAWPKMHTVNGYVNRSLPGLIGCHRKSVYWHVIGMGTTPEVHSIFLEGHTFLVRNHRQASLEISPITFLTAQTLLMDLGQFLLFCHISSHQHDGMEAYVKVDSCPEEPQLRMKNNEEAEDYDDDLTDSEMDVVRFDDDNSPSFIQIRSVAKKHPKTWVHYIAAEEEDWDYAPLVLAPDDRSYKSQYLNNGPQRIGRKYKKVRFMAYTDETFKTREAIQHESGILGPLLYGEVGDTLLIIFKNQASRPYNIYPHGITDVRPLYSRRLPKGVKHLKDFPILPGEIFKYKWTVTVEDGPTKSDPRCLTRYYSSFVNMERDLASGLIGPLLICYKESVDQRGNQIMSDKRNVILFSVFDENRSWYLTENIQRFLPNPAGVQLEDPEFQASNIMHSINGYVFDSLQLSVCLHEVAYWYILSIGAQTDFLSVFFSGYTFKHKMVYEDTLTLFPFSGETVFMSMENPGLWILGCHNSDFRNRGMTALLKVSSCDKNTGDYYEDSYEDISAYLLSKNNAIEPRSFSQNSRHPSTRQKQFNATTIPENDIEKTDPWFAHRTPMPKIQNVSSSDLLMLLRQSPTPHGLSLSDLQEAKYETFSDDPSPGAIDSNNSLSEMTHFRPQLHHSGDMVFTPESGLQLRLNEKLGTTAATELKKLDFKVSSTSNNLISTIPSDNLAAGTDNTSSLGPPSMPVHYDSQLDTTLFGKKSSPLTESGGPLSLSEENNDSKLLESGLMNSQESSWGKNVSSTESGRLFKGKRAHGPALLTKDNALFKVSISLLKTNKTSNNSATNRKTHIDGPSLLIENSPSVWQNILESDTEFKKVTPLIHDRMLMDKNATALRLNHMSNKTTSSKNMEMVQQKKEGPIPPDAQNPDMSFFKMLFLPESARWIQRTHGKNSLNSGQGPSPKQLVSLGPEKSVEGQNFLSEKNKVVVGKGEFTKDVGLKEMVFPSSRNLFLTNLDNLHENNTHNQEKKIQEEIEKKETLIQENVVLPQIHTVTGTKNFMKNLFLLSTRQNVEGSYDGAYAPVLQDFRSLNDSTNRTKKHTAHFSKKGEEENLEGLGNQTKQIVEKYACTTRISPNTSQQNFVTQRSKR
T1 sequence (P00451 1668-2351 limits assumed): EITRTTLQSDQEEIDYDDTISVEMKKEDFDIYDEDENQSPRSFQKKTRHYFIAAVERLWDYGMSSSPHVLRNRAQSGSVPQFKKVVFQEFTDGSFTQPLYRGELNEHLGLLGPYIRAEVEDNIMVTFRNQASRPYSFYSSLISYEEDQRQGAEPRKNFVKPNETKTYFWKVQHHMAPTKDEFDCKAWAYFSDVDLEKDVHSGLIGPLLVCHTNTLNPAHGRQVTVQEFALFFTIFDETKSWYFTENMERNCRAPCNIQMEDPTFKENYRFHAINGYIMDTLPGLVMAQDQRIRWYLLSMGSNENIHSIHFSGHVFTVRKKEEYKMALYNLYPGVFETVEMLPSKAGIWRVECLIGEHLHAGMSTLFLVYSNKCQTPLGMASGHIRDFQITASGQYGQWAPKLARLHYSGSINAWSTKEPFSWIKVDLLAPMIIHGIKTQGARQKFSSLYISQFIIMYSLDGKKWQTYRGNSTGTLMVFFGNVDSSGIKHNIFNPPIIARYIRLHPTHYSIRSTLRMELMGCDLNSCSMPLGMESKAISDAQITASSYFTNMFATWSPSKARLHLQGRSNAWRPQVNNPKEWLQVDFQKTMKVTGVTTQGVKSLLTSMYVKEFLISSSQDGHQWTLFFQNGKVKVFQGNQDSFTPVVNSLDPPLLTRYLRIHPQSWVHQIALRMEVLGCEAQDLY
Test: Comparative batch binding and elution of nhfVIII with immobilized polypeptide ligands
Conditions: batch procedure
Experimental: For these experiments, nhfVIII was obtained from American Diagnostica, Inc. (Greenwich, Conn.; product #408 nat) in the form of a lyophilized powder containing stabilizing agents. The nhfVIII was reconstituted according to the manufacturer's instructions in a reconstituting buffer (72 mM NH4OAc, pH 6.3, 360 mM NaCl, 0.04% Tween 80 (Buffer 1).
A commercial ELISA kit (IMUBIND fVIII ELISA kit, Product #884, American, Inc., Greenwich, Conn.) developed to detect factor VIII was used according to the manufacturer's specifications in order to detect both the REFACTO® and the nhfVIII targets. The kit employs a sandwich ELISA assay in which the target is captured by an immobilized monoclonal antibody and the captured target is detected with a second monoclonal antibody-horseradish peroxidase (HRP) conjugate. Addition of the peroxidase substrate and its subsequent reaction with the HRP produces a blue color (detected at 630 nm) which changes to yellow (detected at 450 nm) on addition of the 0.5N sulfuric acid stop solution. Color response is calibrated with factor VIII standards provided by the manufacturer.
Following the pH 2 washes, the beads were washed once in PBS containing 0.05% azide and stored at 4° C.
A sample of nhfVIII was diluted to a final concentration of 100 U/ml by addition of 2.32 ml H2O, 180 μl 1M NH4OAc, pH 6.3 (to 72 mM), and 1 μl Tween 80 (to 0.04%). REFACTO® stock solution was diluted to 100 U/ml in a modified Buffer 1, in which the NaCl concentration was reduced from […] to 330 mM.
Immobilized peptides were tested for binding to nhFVIII in comparison with REFACTO®. […] Next, nhfVIII and REFACTO® solutions were mixed with regenerated affinity beads bearing the CS-454, CS-456, and CS-458 ligands in a comparative batch purification procedure.

| Substance | binding and release of nhfVIII compared with a factor VIII-like polypeptide (in words) |
| --- | --- |
| AEGTGDFGCSWLFPCPFDPGPEGGGS-NHNH2 (disulfide 9-15 (inferred)) [CS-456] | bind and release nhfVIII under similar conditions and with similar yields |
| AEGTGDFCWVFAFDHCHDPGPEGGGS-NHNH2 (disulfide 8-16 (inferred)) [CS-458] | bind and release nhfVIII under similar conditions and with similar yields |
| AEGTGDHLCGAWFRPCDADPGPEGGGS-NHNH2 (disulfide 9-16 (inferred)) [CS-454] | bind and release nhfVIII under similar conditions and with similar yields |
